# Test results: publication PMC8113555
# Tests used:
# [1] = molecular target: TEBP-1-His5 (Caenorhabditis elegans) (UniProt O62329); test: fluorescence polarization; details: FP: 20 mM HEPES pH 7.0, 100 mM NaCl, 5% glycerol, 20 nM probe, 10 min at RT; pull-down: 50 mM Tris/HCl pH 7.5, 150 mM NaCl, 0.5% NP-40, 5 mM MgCl2, 1 mM DTT …
# [2] = molecular target: TEBP-2-His5 (Caenorhabditis elegans) (UniProt Q22429); test: fluorescence polarization; details: FP: 20 mM HEPES pH 7.0, 100 mM NaCl, 5% glycerol, 20 nM probe, 10 min at RT; pull-down: 50 mM Tris/HCl pH 7.5, 150 mM NaCl, 0.5% NP-40, 5 mM MgCl2, 1 mM DTT …
# Sequence of TEBP-2-His5 (Caenorhabditis elegans) (Q22429 entry or part of it): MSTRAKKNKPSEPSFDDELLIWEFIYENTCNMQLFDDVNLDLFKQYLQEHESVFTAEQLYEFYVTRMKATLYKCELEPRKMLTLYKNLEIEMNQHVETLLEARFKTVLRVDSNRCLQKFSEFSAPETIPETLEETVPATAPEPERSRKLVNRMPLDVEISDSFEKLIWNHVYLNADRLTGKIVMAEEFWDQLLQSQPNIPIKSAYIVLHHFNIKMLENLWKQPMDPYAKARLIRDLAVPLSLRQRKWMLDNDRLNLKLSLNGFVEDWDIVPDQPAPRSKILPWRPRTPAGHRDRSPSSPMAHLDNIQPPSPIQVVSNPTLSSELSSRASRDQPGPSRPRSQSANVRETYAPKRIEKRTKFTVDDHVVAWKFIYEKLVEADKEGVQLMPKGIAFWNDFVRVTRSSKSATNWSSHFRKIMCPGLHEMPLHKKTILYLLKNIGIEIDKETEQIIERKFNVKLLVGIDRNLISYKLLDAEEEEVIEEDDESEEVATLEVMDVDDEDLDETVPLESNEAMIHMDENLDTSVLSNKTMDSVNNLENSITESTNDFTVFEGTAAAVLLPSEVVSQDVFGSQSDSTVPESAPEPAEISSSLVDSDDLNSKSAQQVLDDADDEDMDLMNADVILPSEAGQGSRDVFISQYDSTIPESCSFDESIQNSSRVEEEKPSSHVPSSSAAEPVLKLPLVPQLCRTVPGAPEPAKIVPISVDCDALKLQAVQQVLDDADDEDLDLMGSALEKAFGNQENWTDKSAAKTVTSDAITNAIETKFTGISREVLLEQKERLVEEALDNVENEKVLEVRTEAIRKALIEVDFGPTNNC
sequence,measurement,setting,value
CTGTTAGGCTTAGGCTTAG (double strand) [2.5x TTAGGC ds],Kd,[1],129 nM
same,Kd,[2],37.8 nM
